Assays:
[1] = target: AfCHS, chalcone synthase of Allium fistulosum (yeast two-hybrid fusion) (Allium fistulosum)
[2] = target: AfCHS, chalcone synthase of Allium fistulosum (yeast two-hybrid fusion) (Allium fistulosum); remark: listed apart in the source
AfCHS/AfCHIL = test system: T1, AfCHS/AfCHIL; assay: HPLC at […] nm, Michaelis-Menten fit; assay type: biochemical, Allium fistulosum; settings: AfCHIL present; 200 uM malonyl-CoA, 20-200 uM p-coumaroyl-CoA
T1 construct: gene CHS; complete ORFs in pET-15b, His6-tagged, E. coli BL21 (DE3), combined in the assay; legend calls it AfCHIL/AfCHS1; with Chalcone isomerase-like protein (type IV chalcone isomerase)

AfCHS = test system: T2, AfCHS; assay: HPLC at […] nm, Michaelis-Menten fit; assay type: biochemical, Allium fistulosum; settings: 200 uM malonyl-CoA, 20-200 uM p-coumaroyl-CoA, HEPES-KOH pH 7.0, 2 mM DTT, 35 °C, 30 min
T2 construct: gene CHS; complete ORF in pET-15b, His6-tagged, E. coli BL21 (DE3), His-tag purified

Molecule: AfCHIL, type IV chalcone isomerase of Allium fistulosum (yeast two-hybrid fusion) (natural protein)
- by-product CTAL produced by purified AfCHS in vitro with AfCHIL present, against AfCHS alone [1]: 30 % decrease
- naringenin produced by purified AfCHS in vitro with AfCHIL present, against AfCHS alone [1]: 2.2 times
- Kcat of purified His6-AfCHS (p-coumaroyl-CoA and malonyl-CoA as substrates) in the presence of purified His6-AfCHIL, against AfCHS alone [2]: 2.7 times

Molecule: CC(C)(COP(=O)(O)OP(=O)(O)OC[C@H]1O[C@@H](n2cnc3c(N)ncnc32)[C@H](O)[C@@H]1OP(=O)(O)O)[C@@H](O)C(=O)NCCC(=O)NCCSC(=O)/C=C/c1ccc(O)cc1 [p-coumaroyl-CoA]
- Km (AfCHS/AfCHIL): 53.9 ± 10 µM
- Km (AfCHS): 55.1 ± 12.5 µM
